The values below come from patent US20210355175A1 (University of Washington, published 2021).

B2: DHD13_XAAA chain b (designed binder)
chain: GTEKRLLEEAERAHREQKEIIKKAQELHRRLEEIVRQSGSSEEAKKEAKKILEEIRELSKRSLELLREILYLSQEQKGSLVPR
notes: also called 9′
B8: DHD37_ABXB chain a (designed binder)
chain: DSDEHLKKLKTFLENLRRHLDRLDKHIKQLRDILSENPEDERVKDVIDLSERSVRIVKTVIKIFEDSVRKKE
notes: In Y2H it was fused to Gal4 AD or DBD
B9: DHD37_ABXB chain b (designed binder)
chain: GSDDKELDKLLDTLEKILQTATKIIDDANKLLEKLRRSERKDPKVVETYVELLKRHEKAVKELLEIAKTHAKKVE
notes: Used in Y2H as a co-expressed input or fused to Gal4 AD/DBD; also called 1′; 1′ (b)

One data set deals with T1, DHD9 chain b.
T1 construct: also called 9b; 9_b
T1 chain: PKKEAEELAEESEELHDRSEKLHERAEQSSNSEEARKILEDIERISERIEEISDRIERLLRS
Put plainly: co-expression in E. coli, one b monomer His-tagged.

A further data set concerns the target T2, DHDSC_9-13-37 chain 13b.
T2 chain: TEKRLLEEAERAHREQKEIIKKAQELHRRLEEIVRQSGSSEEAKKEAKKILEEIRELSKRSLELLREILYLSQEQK
Nature of the data set: co-expression in E. coli, one b monomer His-tagged.

The target of the data set “DHD37_ABXB chain b” is B9. Put plainly: individual yeast two-hybrid experiments.
Another data set addresses T3, DHD39 chain b.
T3 construct: In the NOR gate it was fused to the Gal4 DBD; also called 10′; DHD_39 b
T3 chain: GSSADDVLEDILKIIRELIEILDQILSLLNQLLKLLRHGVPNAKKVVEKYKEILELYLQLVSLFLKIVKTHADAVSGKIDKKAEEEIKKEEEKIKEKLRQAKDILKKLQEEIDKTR
Nature of the data set: individual yeast two-hybrid experiments.

In the data set “DHD37_ABXB chain a” the target is B8. Put plainly: individual yeast two-hybrid experiments.
The data set “DHD13_XAAA chain b” has as its target B2. Nature of the data set: yeast two-hybrid competition by the co-expressed unfused monomer.
In a further data set the target is T4, DHD37_1:234 chain b.
T4 construct: Single-helix monomer of the backbone-permuted 3+1 heterodimer
T4 chain: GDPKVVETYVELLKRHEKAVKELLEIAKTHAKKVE
Put plainly: X-ray crystal structure of the heterodimer.

In a further data set the target is T5, DHD127 chain b.
T5 construct: also called DHD_127 b
T5 chain: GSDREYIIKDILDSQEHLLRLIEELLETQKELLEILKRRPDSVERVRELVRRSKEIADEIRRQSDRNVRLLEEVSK
Put plainly: X-ray crystal structure of the heterodimer.

The target of the next data set is T6, DHD17 chain b.
T6 construct: Co-expressed input protein of the NOT gate; also called 8′
T6 chain: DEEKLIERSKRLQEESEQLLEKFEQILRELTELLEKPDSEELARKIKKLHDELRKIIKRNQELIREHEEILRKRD
Nature of the data set: yeast two-hybrid.

The data set “yeast two-hybrid” concerns the molecule itself. Nature of the data set: yeast two-hybrid.
Data set [1] deals with T7, 2′-1′_6-residue_linker.
T7 construct: also called 1′-2′; 1′-2′ with a 6-residue linker
T7 chain: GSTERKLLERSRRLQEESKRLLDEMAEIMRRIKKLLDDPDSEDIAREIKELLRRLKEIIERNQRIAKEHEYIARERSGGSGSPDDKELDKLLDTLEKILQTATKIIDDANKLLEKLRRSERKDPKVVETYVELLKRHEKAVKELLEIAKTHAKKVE
Nature of the data set: thermodynamic model matched to native MS titration data. The source says:
(§1) We studied the cooperativity of the induced dimerizer system in vitro using native mass spectrometry (FIG. 11F). […] We define cooperativity as the ratio of the affinities in the presence and absence of the other monomer, which in our model directly relates to the free energy of opening of the dimerizer (c=e^ΔG^ₒₚₑₙ^{/RT}, see supplementary materials).

For data set [2], the target named is T7, 2′-1′_6-residue_linker. Put plainly: native mass spectrometry, 10 µM of 1 and 1′-2′; bound from the detection limit of 0.0375 µM.
Data set [3] deals with T7, 2′-1′_6-residue_linker. Put plainly: calculated from the cooperativity factor fitted to native MS data.
From the text: as §1
We experimentally estimated K₁ using native MS experiments.

From the text for DHD127 chain b: (§2) The X-ray data sets were collected at the Advanced Light Source at Lawrence Berkeley National Laboratory with beamlines 8.2.1 and 8.2.2. Data sets were indexed and scaled using either XDS³³ or HKL2000³⁴. Initial models were generated by the molecular-replacement method with the program PHASER³⁵ within the Phenix™ software suite³⁶, using the design models as the initial search models. Efforts were made to reduce model bias through refinement with simulated annealing using Phenix.Refine™³⁷, or, if the resolution was sufficient, by using Phenix.Autobuild™³⁸ with rebuild-in-place set to false, simulated annealing and prime-and-switch phasing. Iterative rounds of manual building in COOT³⁹ and refinement in Phenix™ were used to produce the final models. […] RMSDs of bond lengths, angles and dihedrals from ideal geometries were calculated with Phenix™³⁶.
From the text for DHD37_1:234 chain b: as §2

B1: DHDSC_9-13-37 scaffold, chain 9a-13a-37a (designed binder)
chain: PKEEARELIRKQKELIKEQKKLIKEAKQKSDSRDAERIWKRSREINRESKKINKRIKELIKSGSEGSGSEGSGSTKEDILERQRKIIERAQEIHRRQQEILEELERIIRKPGSSEEAMKRMLKLLEESLRLLKELLELSEESAQLLYEQRGSEGSGSEGSGSDSDEHLKKLKTFLENLRRHLDRLDKHIKQLRDILSENPEDERVKDVIDLSERSVRIVKTVIKIFEDSVRKKE
Regarding B1, the binding result in the data set with DHD9 chain b and with DHDSC_9-13-37 chain 13b was “binds” each time. B2: the binding result with DHD37_ABXB chain b is listed as “binds”.

B3: DHD39 chain a (designed binder)
chain: DHSRKLEEILDRLRKHVKRLLEHLRELLSLVKENPEDKDLVEVLELSLAILRRSLEAVEAFLKSVTKKDPDDEDLRRKADEIRKEVEEIKKSLAEVEKEIYKLK
notes: also called 10; DHD_39 a
With B3, in the data set with DHD39 chain b, the binding result is given as “binds”.

B4: DHD13_XAAA chain a (designed binder)
chain: GTKEDILERQRKIIERAQEIHRRQQEILEELERIIRKPGSSEEAMKRMLKLLEESLRLLKELLELSEESAQLLYEQR
Consider B4, for which the binding result with DHD37_ABXB chain a, with DHD39 chain b and with DHD13_XAAA chain b was “binds” each time.

B5: DHD37_1:234 chain a (designed binder)
chain: DSDEHLYKLKTFLENLRRHLDRLDKHIKQLRDILSENPEDERVKDAIDLSERSVRIVKTVIKIFEDSVRKKEKRPIDKRDDKELDKLLDTLEKILQTATKIIDDANKLLEYLRR
notes: Three-helix monomer of the backbone-permuted 3+1 heterodimer
As to B5, the binding result with DHD37_1:234 chain b is “binds”.

B6: DHD127 chain a (designed binder)
chain: GSPRSYLLKELADLSQHLVRLLERLVRESERVVEVLERGEVDEEELKRLEDLHRELEKAVREVRETHREIRERSR
notes: also called DHD_127 a
Take B6: in the data set with DHD127 chain b, the binding result is given as “binds”.

B7: DHD17 chain a (designed binder)
chain: DRKDLLKRNIKLLDRHLKILDTILKLLEKLSELLKKSSSEEVVKEYKKILDEIRKLLEESKEIHKESKEILERES
notes: In the NOT gate it was fused to both Gal4 AD and DBD; also called DHS 17 a
Take B7: the binding result with DHD17 chain b and in “yeast two-hybrid” was “binds” throughout. For the molecule B8, in the data set with DHD37_ABXB chain b, the binding result was “binds”. For the same molecule, the “cooperativity c (ratio of the affinities in the presence and absence of the other monomer)” value with 2′-1′_6-residue_linker [1] is 991000. Moreover, the values for the Kd in the data set with 2′-1′_6-residue_linker [2] and in the data set with 2′-1′_6-residue_linker [3] were 2.65 mM and 9.91 mM, respectively.

For the molecule B9, the binding result with DHD39 chain b is listed as “binds”.
